Data from paper PMC3342945.

T1: membrane IL-6R on BAF/gp130/IL6R/TNF cells (Homo sapiens) (UniProt P08887)
T1 sequence: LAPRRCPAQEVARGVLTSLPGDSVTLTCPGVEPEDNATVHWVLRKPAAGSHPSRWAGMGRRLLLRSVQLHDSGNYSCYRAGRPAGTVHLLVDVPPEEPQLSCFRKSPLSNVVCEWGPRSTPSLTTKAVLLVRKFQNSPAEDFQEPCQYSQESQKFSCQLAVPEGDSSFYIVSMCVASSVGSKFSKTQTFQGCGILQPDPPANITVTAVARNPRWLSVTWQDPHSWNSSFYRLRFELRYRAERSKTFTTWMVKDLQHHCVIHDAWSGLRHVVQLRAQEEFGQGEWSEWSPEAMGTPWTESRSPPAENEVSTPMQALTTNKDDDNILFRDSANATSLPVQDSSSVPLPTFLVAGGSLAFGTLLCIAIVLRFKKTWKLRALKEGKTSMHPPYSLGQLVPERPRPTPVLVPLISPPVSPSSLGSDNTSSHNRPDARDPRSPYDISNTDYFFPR


How the values were obtained:
[1] = target: T1, membrane IL-6R on BAF/gp130/IL6R/TNF cells (Homo sapiens); assay: flow cytometry
[2] = target: T2, Hyper-IL-6 (IL-6 and sIL-6R fusion, flexible linker) (Homo sapiens, UniProt P08887 113-323+P05231:29-212, internal_change); assay: filter binding
[3] = target: T2, Hyper-IL-6 (IL-6 and sIL-6R fusion, …); assay: filter binding; remark: listed apart in the source

Molecule | binding result [3] | further results
GGGGAGGCUGUGGUGAGGG [AIR-3A Atto647N] |  | Kd [1]: 8.5 nM
GGGGAGGCUGUGGUGAGGG (structured_RNA) [AIR-3A] |  | Kd [2]: 60.4 ± 16 nM
GGGGAGGCUGUGGUGAUGG (ssRNA) [G17U] | no binding | 
GGGGAGGCUGUGGUGAGUG (ssRNA) [G18U] | no binding | 
GGGGAGGCUGUGGUGAUUG (ssRNA) [G17U/G18U] | no binding | 
